Measurements reported in patent publication US6132722A, “Recombinant antibody-enzyme fusion proteins” (Bristol-Myers Squibb Company, priority 1998, dated 2000).

How the values were obtained:
[1] = Michaelis-Menten kinetic analysis of bL activity with nitrocefin as substrate; assay type: biochemical
Description: Enzymatic activity assays of the bL portion of L49-sFv-bL were undertaken using nitrocefin as the enzyme substrate (Table 1). […] Thus, both the binding of the L49 antibody and enzymatic activity of the E. cloacae r2-1 bL were preserved in the fusion protein.

[2] = Clearance of conjugate from the blood of nude mice; assay type: in vivo
Description: FIGS. 9A and 9B depict pharmacokinetics of L49-sFv-bL in nude mice (3 animals/group). L49-sFv-bL was injected intravenously, tissues were removed and extracted at the indicated times, and the β-lactamase activity was determined using nitrocefin as a substrate. FIG. 9A depicts clearance of L49-sFv-bL from the blood. Injected dose was 4 mg/kg. FIG. 9B depicts L49-sFv-bL levels in subcutaneous 3677 melanoma tumors and in normal tissues. Injected dose was 1 mg/kg.
Conjugate Localization. Subcutaneous 3677 melanoma tumors were established in female athymic nu/nu mice (8-12 weeks old, Harlan Sprague-Dawley, Indianapolis, Ind.) by transplanting tumors that had been previously passaged as previously described (Kerr et al., Cancer Res., 55:3558-3563 (1995)). Tumor bearing mice were injected i.v. with L49-sFv-bL (1 or 4 mg mAb component/kg) or with L49-Fab'-bL (1.8 mg mAb component/kg). At various time intervals, the mice were anesthetized, bled through the orbital plexus, and sacrificed. Tissues were removed and homogenized in PBS containing 15 μg/ml aprotinin (2 mL/g tissue). To the homogenate was added 50 mM sodium phosphate containing 100 mM NaCl at pH 11.2 (10 ml/g tissue), and the suspension was mixed. After 20 min at room temperature, 3M sodium phosphate at pH 7.0 was added (2 ml/g tissue), and the mixture was mixed and centrifuged.
Quantification of conjugate concentrations was accomplished using a direct enzyme immunoassay. Polystyrene 96-well microtiter plates were coated with an affinity-purified rabbit polyclonal antisera to wild type E. cloacae bL (1 μg/ml), and were then blocked with specimen diluent (Genetic Systems Corp.). Serially diluted tissue extracts or purified samples (L49-sFv-bL as a standard for the fusion protein samples, L49-Fab'-bL as a standard for the L49-Fab'-bL samples) were added to the wells and allowed to bind for 3 h at room temperature. The plates were washed and developed by the addition of 0.1 ml of nitrocefin (O'Callaghan et al., Antimicrobial Agents and Chemotherapy, 1:283-288 (1972)) at 0.1 mM in PBS containing 1% dimethylformamide. Absorbance measurements were read in an ELISA plate reader using a 490 nm filter with 630 nm as the reference wavelength.
In Vivo Localization. Biodistribution studies of L49-sFv-bL and L49-Fab'-bL were carried out in nude mice bearing subcutaneous (s.c.) 3677 melanoma tumor xenografts. The conjugates were injected i.v., and at various time points tissues were removed and extracted under alkaline conditions to disrupt antigen-antibody interactions. The samples were then trapped a polyclonal antiserum to bL, and bL activity was measured using nitrocefin as a colorimetric indicator (O'Callaghan et al, Antimicrobial Agents and Chemotherapy, 1:283-288 (1972)).

3677 melanoma cells = assay: In vitro cytotoxicity, [3H]thymidine incorporation; assay type: cell-based, human
Description: In Vitro Cytotoxicity. 3677 melanoma cells were plated into 96-well microliter plates (10^4 cells/well in 100 μL of Iscove's Modified Dulbecco's Medium (IMDM) with 10% fetal bovine serum, penicillin (60 μg/ml), and streptomycin (100 μg/ml) and allowed to adhere overnight. For blocking experiments, the cells were incubated with unconjugated L49 at 1 μM for 30 min. prior to treatment with the L49 conjugates. The cells were treated with L49-sFv-bL or L49 Fab'-bL at 10 nM. After 30 min. at 4° C., the plates were washed three times with antibiotic-free RPMI 1640 media (Gibco) with 10% fetal bovine serum, and then varying concentrations of CCM (FIG. 1) were added. CCM and PDM were also added to cells treated with media alone. After 1 h at 37° C., cells were washed three times with IMDM and incubated approximately 18 h at 37° C. The cells were then pulsed for 12 h with [^3 H] thymidine (1 μCi/well) at 37° C., detached by freezing at -20° C. and thawing, and harvested onto glass fiber filter mats using a 96-well harvester (Wallac, Gaithersburg, Md.). Radioactivity was counted using a LKB Wallac β-plate counter.
In Vitro Cytotoxicity. […] Radioactivity was counted using a LKB Wallac β-plate counter.
The cytotoxic effects of L49-sFv-bL in combination with CCM were determined on 3677 human melanoma cells, which express the p97 antigen. […]

B1: L49-sFv-bL: recombinant fusion protein: L49 anti-p97 single-chain Fv (VH-218 linker-VL) fused to r2-1 mutant E. cloacae β-lactamase, SEQ ID NO: 20 (protein)
chain: MKYLLPTAAAGLLLLAAQPAMAEVQLQESGPSLVKPSQTLSLTCSVTGDSITSGYWNWIRKFPGNKLEYMGYISDSGITYYNPSLKSRISITRDTSKNQYYLQLNFVTAEDTATYNCARRTLATYYAMDYWGQGTSVTVSSGSTSGSGKPGSGEGSTKGDFVMTQTPLSLPVSLGDQASISCRASQSLVHSNGNTYLHWYLQKPGQSPKLLIYRVSNRFSGVPDRFSGSGSGTDFTLKISRVEAEDLGVYFCSQSTHVPPTFGGGTKLEIKRTPVSEKQLAEVVANTITPLMKAQSVPGMAVAVIYQGKPHYYTFGKADIAANKPVTPQTLFELGSISKTFTGVLGGDAIARGEISLDDAVTRYWPQLTGKQWQGIRMLDLATYTAGGLPLQVPDEVTDNASLLRFYQNWQPQWKPGTTRLYANASIGLFGALAVKPSGMPYEQAMTTRVLKPLKLDHTWINVPKAEEAHYAWGYRDGKAVRVSPGMLDAQAYGVKTNVQDMANWVMANMAPENVADASLKQGIALAQSRYWRIGSMYQGLGWEMLNWPVEANTVVETSFGNVALAPLPVAEVNPPAPPVKASWVHKTGSTGGFGSYVAFIPEKQIGIVMLANTSYPNPARVEAAYHILEALQTSEFE
- Km [1]: 19 µM
- enzymatic activity relative to the mutant bL enzyme [1]: retained the full enzymatic activity
- kcat [1]: 232 s⁻¹
- initial clearance half life t1/2 α ([2]; blood, i.v., 4 mg/kg): 0.3 h
- terminal clearance half life t1/2 β ([2]; blood, i.v., 4 mg/kg): 2.5 h
- clearance from the blood ([2]; i.v., nude mice): cleared very rapidly
- reduction of blood levels ([2]; within 24 h of conjugate administration): 10^4
- cytotoxic activity of conjugate + CCM combination (3677 melanoma cells; conjugate 10 nM, washed, then CCM 1 h): equivalent in activity to PDM
- activation of CCM on cells previously saturated with L49 mAb (3677 melanoma cells; unconjugated L49 1 μM before the fusion protein): did not activate CCM
